In patent publication US20250051442A1 (UNIVERSITY OF TSUKUBA, published 2025):
Substitutions are numbered along the chain they refer to. Values belong to the binder of their own block, whether it stands above or below them.

Experiments:
human DNAM-1 [1] = target: T1, human DNAM-1 (human, UniProt Q15762 19-336); assay: flow cytometry on hDNAM-1/BW cells, antibody purified from CHO-K1
T1 construct: whole, on cells; also called hDNAM-1; CD226
T1 sequence (looked up): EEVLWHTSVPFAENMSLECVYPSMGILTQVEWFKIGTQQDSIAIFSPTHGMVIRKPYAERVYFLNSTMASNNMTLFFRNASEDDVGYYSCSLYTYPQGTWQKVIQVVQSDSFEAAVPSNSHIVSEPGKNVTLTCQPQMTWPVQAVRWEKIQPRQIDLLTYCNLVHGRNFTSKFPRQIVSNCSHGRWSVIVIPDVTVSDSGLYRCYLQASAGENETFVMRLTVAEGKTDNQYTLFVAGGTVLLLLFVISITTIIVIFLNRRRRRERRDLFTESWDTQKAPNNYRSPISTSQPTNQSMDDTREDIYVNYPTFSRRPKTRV
Method: Binding to human DNAM-1 was examined by flow cytometry using a mouse lymphoblast BW5147 cell line (hereinafter, may be referred to as “BW”) and BW5147 stably expressing human hDNAM-1 (hereinafter, may be referred to as “hDNAM-1/BW”). Test antibodies at various concentrations were incubated with about […] hDNAM-1/BW cells at 4° C. for 1 hour in PBS (FACS buffer) containing 0.5% BSA and 0.05% NaN3. Thereafter, the cells were washed with ice-cooled FACS Buffer, and incubated at 4° C. for 30 minutes using a PE-labeled goat anti-human IgG antibody (manufactured by SouthernBiotech). After washing with FACS buffer, the stained cells were analyzed using a FACScan flow cytometer (manufactured by BD Biosciences).

human DNAM-1 [2] = target: T1, human DNAM-1; assay: flow cytometry on BW5147 cells stably expressing human DNAM-1 (hDNAM-1/BW)

- EC50 (human DNAM-1 [1]): 5 µg/mL
B1: humanized anti-DNAM-1 antibody hAKB1-B (antibody, human IgG1, kappa, L234A L235A, V domains shown)
VH: QVQLQESGPGLVKPSETLSLTCTVSGYSISSGYYWNWIRQPPGKGLEWMGYISYDGSNNYNPSLKNRVTISRDTSKNQFSLKLSSVTAADTAVYYCARAYYGNYVGYFDVWGQGTTVTVSS
VL: DIQMTQSPSSLSASVGDRVTITCKASQSVSNDVAWYQQKPGKAPKLLIYYASNRYTGVPSRFSGSGYGTDFTFTISSLQPEDIATYYCQQDYSSPLTFGGGTKVEIKR
notes: Full chains without signal peptide; also called phAKB1-B (expression vector); hAKB1-VH2 + hAKB1-VL1

- EC50 (human DNAM-1 [1]): 5 µg/mL
B2: humanized anti-DNAM-1 antibody hAKB1-A (antibody, human IgG1, kappa, L234A L235A, V domains shown)
VH: B1 VH with S30T
VL: B1 VL
notes: Full chains without signal peptide; also called phAKB1-A (expression vector); hAKB1-VH1 + hAKB1-VL1

- EC50 (human DNAM-1 [2]): 6 µg/mL
B3: anti-human DNAM-1 monoclonal antibody mAKB1 (antibody, V domains shown)
VH: DVQLQESGPGLVKPSQSLSLTCSVTGYSITSGYYWNWIRQFPGNKLEWMGYISYDGSNNYNPSLKNRISITRDTSKNQFFLKLNSVTTEDTATYYCARAYYGNYVGYFDVWGAGTTVTVSS
VL: SIVMTQTPKFLLVSAGDRVTITCKASQSVSNDVAWYQQKPGQSPKLLIYYASNRYTGVPDRFTGSGYGTDFTFTISTVQAEDLAVYFCQQDYSSPLTFGAGTKLELKR
notes: also called clone mAKB1
